Columns and labels:
RNF43 (Homo sapiens) [1] = target: RNF43 (Homo sapiens) (UniProt Q68DV7); experiment: ITC; conditions: cited from earlier work
RNF43 (Homo sapiens) [2] = target: RNF43 (Homo sapiens) (UniProt Q68DV7); experiment: ITC; conditions: cited from earlier work; remark: listed apart in the source
[3] = target: T1, ZNRF3 ectodomain with C-terminal biotin acceptor peptide (C-BAP) tag, biotinylated in vivo (mouse, UniProt Q5SSZ7 53-216, biotin on the biotin acceptor peptide tag (in-vivo biotinylation by BirA)); experiment: SPR; IBIS MX96; biotinylated ZNRF3 immobilised on a G-streptavidin sensor chip at different ligand densities; analytes flowed in 25 mM HEPES pH 8.0, 150 mM NaCl, 25 °C; equilibrium dose-response, global fit to a 1:1 binding model; conditions: both partners purified
T1 construct: ZNRF3 ectodomain; also called Biotinylated ZNRF3; source: HEK293-E cells, co-expressed with biotin ligase (BirA); not shown: biotin acceptor peptide (BAP), C-terminal, kept
T1 sequence (looked up): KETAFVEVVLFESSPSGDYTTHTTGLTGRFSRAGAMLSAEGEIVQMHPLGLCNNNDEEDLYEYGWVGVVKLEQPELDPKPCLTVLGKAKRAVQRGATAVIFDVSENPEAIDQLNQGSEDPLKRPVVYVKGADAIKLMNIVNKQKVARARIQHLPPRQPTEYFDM

RNF43 (Homo sapiens), sequence (Q68DV7 24-197): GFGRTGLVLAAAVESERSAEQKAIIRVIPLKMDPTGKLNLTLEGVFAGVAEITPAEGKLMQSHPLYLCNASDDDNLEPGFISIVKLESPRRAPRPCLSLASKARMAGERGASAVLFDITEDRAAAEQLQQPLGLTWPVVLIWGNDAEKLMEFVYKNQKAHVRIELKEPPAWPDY

For RSPO1 (from UniProt Q2MKA7), the Kd (RNF43 (Homo sapiens) [1]) is given as 750 nM and the Kd (RNF43 (Homo sapiens) [2]) is given as 8500 nM.

B1: R-spondin 1 (RSPO1) furin-like domains Fu1 and Fu2 (domain or fragment)
chain: RISAEGSQACAKGCELCSEVNGCLKCSPKLFILLERNDIRQVGVCLPSCPPGYFDARNPDMNKCIKCKIEHCEACFSHNFCTKCKEGLYLHKGRCYPACPEGSSAANGTMECSSPA
notes: R-spondin 1, fragment consisting of the Fu1 and Fu2 domains; source: HEK 293E (EBNA) cells, purified (Ni-NTA, gel filtration); as described previously [18]
With B1 the Kd [3] was 1900 nM.

Source: article PMC3861454, “Structures of Wnt-Antagonist ZNRF3 and Its Complex with R-Spondin 1 and Implications for Signaling” (PLoS ONE, 2013)
